As usually defined, the EC50 is the concentration needed to bring the measured effect to its halfway point. Read a high EC50 as weaker potency.

The target in one experiment is T1, Human CLDN18.1 (human, UniProt P56856 1-261).
T1 construct: also called hCLDN18.1
Description: flow cytometry, 293T-hCLDN18.1 cells. (In general: In flow cytometry, cells or beads pass a laser one at a time.)

Experiment [1] addresses Human CLDN18.2 (human). The experiment is described as follows: cell-based or functional assay.
Experiment [2] has as its target Human CLDN18.2 (human). Description: cell-based or functional assay. The source holds these as a separate data set.
For experiment [3], the target named is T2, Human CLDN18.2 (human).
T2 construct: the cell line is named under assay; also called hCLDN18.2; human CLDN18.2 antigen
The experiment is described as follows: flow cytometry, NUGC4-hCLDN18.2 cells.
Description: (§1) NUGC4 and NUGC4-hCLDN18.2 cells were cultured, digested with pancreatin and centrifuged to collect cells. The cells were collected and resuspended in buffer (PBS+1% FBS) at 1×10⁴ cells/well in a 96-well plate at 100 μL per well. Then the mixture was centrifuged at 350×g for 5 min, and the supernatant was removed.

For experiment [4], the target named is T2, Human CLDN18.2. Description: flow cytometry, NUGC4 cells (endogenous CLDN18.2).
Description: as §1

B1: Anti-CLDN18.2 monoclonal antibody 2C6.9 (antibody, human IgG1, kappa, V domains shown)
VH: QVQLQESGPGLVKPSETLSLTCTVSGFSLTRYGVSWIRQPPGKGLEWIGVIWGEGNTNYNPSLKSRVTISKDSSKSQVSLKLSSVTAADTAVYYCARVNFGNALDYWGQGTLVTVSS
VL: DIVMTQSPDSLAVSLGERATINCKSSQSLLNSGNQKNYLTWYQQKPGQPPKLLIYWASTRDSGVPDRFSGSGSGTDFTLTISSLQAEDVAVYYCQNDFIFPLTFGGGTKVEIKR
notes: prepared by Wuhan YZY Biopharma
On to B1, for which the binding result with Human CLDN18.1 is on record as “no binding (tested: 1000 nM)”.

B2: anti-CLDN18.2 monoclonal antibody 1E9.2 (antibody, human IgG1, kappa, V domains shown)
VH: EVQLVESGGGLVKPGGSLRLSCAASGFSFSNSAMSWVRQAPGKGLEWVSTISSGDSYTYYADSVKGRFTISRDNAKNSLYLQMNSLRAEDTAVYYCARQGYGNALDYWGQGTLVTVSS
VL: DIVMTQSPDSLAVSLGERATINCKSSQSLLNSGNQKNYLTWYQQKPGQPPKLLIYWSSTRESGVPDRFSGSGSGTDFTLTISSLQAEDFAVYYCQNDYYYPLTFGGGTKVEIKR
notes: as for B1
Consider B2, for which the binding result with Human CLDN18.1 is recorded as “no binding (tested: 1000 nM)”.

B3: bispecific antibody CS5 (bispecific antibody, human IgG1, kappa)
light: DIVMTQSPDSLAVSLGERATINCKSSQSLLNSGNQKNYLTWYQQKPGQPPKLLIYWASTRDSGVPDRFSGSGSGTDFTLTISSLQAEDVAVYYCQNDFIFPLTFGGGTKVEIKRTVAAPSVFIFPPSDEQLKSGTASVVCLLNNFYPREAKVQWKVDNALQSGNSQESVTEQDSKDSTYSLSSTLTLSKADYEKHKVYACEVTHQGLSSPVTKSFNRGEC
heavy 1: QVQLQESGPGLVKPSETLSLTCTVSGFSLTRYGVSWIRQPPGKGLEWIGVIWGEGNTNYNPSLKSRVTISKDSSKSQVSLKLSSVTAADTAVYYCARVNFGNALDYWGQGTLVTVSSASTKGPSVFPLAPSSKSTSGGTAALGCLVKDYFPEPVTVSWNSGALTSGVHTFPAVLQSSGLYSLSSVVTVPSSSLGTQTYICNVNHKPSNTKVDKKVEPKSCDKTHTCPPCPAPPVAGPSVFLFPPKPKDTLMISRTPEVTCVVVDVSHEAPEVQFNWYVDGVEVHNAKTKPREEQFNSTFRVVSVLTVVHQDWLNGKEYKCKVSNKGLPAPIEKTISKTKGQPREPQVYTLPPCRDELTKNQVSLWCLVKGFYPSDIAVEWESNGQPENNYKTTPPVLDSDGSFFLYSKLTVDKSRWQQGNVFSCSVMHEALHNHYTQKSLSLSPGK
heavy 2: QVQLQESGPGLVKPSETLSLTCTVSGFSLTRYGVSWIRQPPGKGLEWIGVIWGEGNTNYNPSLKSRVTISKDSSKSQVSLKLSSVTAADTAVYYCARVNFGNALDYWGQGTLVTVSSASTKGPSVFPLAPSSKSTSGGTAALGCLVKDYFPEPVTVSWNSGALTSGVHTFPAVLQSSGLYSLSSVVTVPSSSLGTQTYICNVNHKPSNTKVDKKVEPKSCDKTHTAPAPAPAPAPAPAPAPQVQLVESGGGVVQPGRSLRLSCAASGFTFSTYAMNWVRQAPGKGLEWVARIRSKYNNYATYYADSVKDRFTISRDDSKNTLYLQMNSLRAEDTAVYYCARHGNFGNSYVSWAAYWGQGTLVTVSSGGGGSGGGGSGGGGSQTVVTQEPSLTVSPGGTVTLTCRSSTGAVTTSNYANWFQQKPGQAPRGLIGGTNKRAPGVPARFSGSLLGGKAALTLSGVQPEDEAEYYCALWYSNLWVFGGGTKVEIKGGGGSDKTHTCPPCPAPPVAGPSVFLFPPKPKDTLMISRTPEVTCVVVDVSHEAPEVQFNWYVDGVEVHNAKTKPREEQFNSTFRVVSVLTVVHQDWLNGKEYKCKVSNKGLPAPIEKTISKTKGQPREPQVCTLPPSRDELTKNQVSLSCAVKGFYPSDIAVEWESNGQPENNYKTTPPVLDSDGSFFLVSKLTVDKSRWQQGNVFSCSVMHEALHNHYTQKSLSLSPGK
notes: CSBODY structure: two 2C6.9 Fab arms; second heavy chain (first heavy entry) and first heavy chain with anti-CD3 scFv (2a5ga) between CH1 and Fc2
B3: in the experiment with Human CLDN18.2 [1], the “EC50 (pM), in vitro killing by hPBMC, NUGC4-hCLDN18.2 cells” value came to 132 pM and the “EC50 (pM), in vitro killing by hPBMC, NUGC4 cells” value was determined as 433 pM. In the experiment with Human CLDN18.2 [2], the “Induction of expression of CD25 EC50 (pM), NUGC4” value amounted to 481 pM; the “Induction of expression of CD25 EC50 (pM), NUGC4-hCLDN18.2” value came to 142 pM; the “Induction of expression of CD69 EC50 (pM), NUGC4” value is 141 pM; the “Induction of expression of CD69 EC50 (pM), NUGC4-hCLDN18.2” value was 70.5 pM. Besides, the midpoint of the response in the experiment with Human CLDN18.2 [3], the EC50, lay at 18.2 nM. In addition, in the experiment with Human CLDN18.2 [4], the half-maximal effective concentration (EC50) is 25.7 nM.

For the origin of these results see US20230192903A1 (published 2023).
